Assay results from article PMC12663309, “NEK7 couples SDHB to orchestrate respiratory chain electron transport homeostasis that impedes liver fibrosis” (Nature Communications, 2025).

Biological target: T1, human NEK7 recombinant protein (HY-P75935, MCE) (human, UniProt Q8TDX7 1-302, RED-NHS dye label (in the MST only))
T1 construct: NEK7, human, commercially sourced recombinant protein; the vendor's catalogue entry would tell them; source: bought: MCE (HY-P75935), recombinant, purity 94%
Experiment: SPR; Biacore T200; NEK7 or NEK7-mut immobilised by amine coupling; SDHB flowed at different concentrations; 1:1 Langmuir binding model
Details: both partners purified

T1 sequence (Q8TDX7 whole entry, one chain of several): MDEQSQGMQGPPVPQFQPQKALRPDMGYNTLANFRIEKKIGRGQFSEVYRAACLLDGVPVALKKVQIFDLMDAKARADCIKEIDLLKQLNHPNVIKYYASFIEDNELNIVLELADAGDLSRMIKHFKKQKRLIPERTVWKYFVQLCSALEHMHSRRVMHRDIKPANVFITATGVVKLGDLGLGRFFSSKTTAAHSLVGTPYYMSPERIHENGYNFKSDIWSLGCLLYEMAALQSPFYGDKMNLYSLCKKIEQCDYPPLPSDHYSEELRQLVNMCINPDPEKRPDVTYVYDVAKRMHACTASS

Kd: 349 nM
B1: human SDHB recombinant protein (Ag29868, Proteintech) (natural protein, UniProt P21912 29-280, looked up)
chain: AQTAAATAPRIKKFAIYRWDPDKAGDKPHMQTYEVDLNKCGPMVLDALIKIKNEVDSTLTFRRSCREGICGSCAMNINGGNTLACTRRIDTNLNKVSKIYPLPHMYVIKDLVPDLSNFYAQYKSIEPYLKKKDESQEGKQQYLQSIEEREKLDGLYECILCACCSTSCPSYWWNGDKYLGPAVLMQAYRWMIDSRDDFTEERLAKLQDPFSLYRCHTIMNCTRTCPKGLNPGKAIAEIKKMMATYKEKKASV
notes: SDHB, human, commercially sourced recombinant protein; the vendor's catalogue entry would tell them (such antigen proteins may be tagged fragments); source: bought: Proteintech (Ag29868), recombinant, purity 80%
